Reference: FireProtDB (doi:10.1021/bi952930e)

B1: Ribonuclease, P00648 (parent)
chain: MMKMEGIALKKRLSWISVCLLVLVSAAGMLFSTAAKTETSSHKAHTEAQVINTFDGVADYLQTYHKLPDNYITKSEAQALGWVASKGNLADVAPGKSIGGDIFSNREGKLPGKSGRTWREADINYTSGFRNSDRILYSSDWLIYKTTDHYQTFTKIR

Variants of: B1
Conditions: Bacillus amyloliquefaciens, pH 6.3, 25 °C, Urea, MES 100 mM, reversible: yes, structure 1BNI, whole UniProt chain shown

MMKMEGIALKKRLSWISVCLLVLVSAAGMLFSTAAKTETSSHKAHTEAQVINTFDGVADYLQTYHKLPDNYITKSEAQALGWVASKGNLADVAPGKSIGGDIFSNREGKLPGKSGKTWREADINYTSGFRNSDRILYSSDWLIYKTTDHYQTFTKIR [R116K]
ddG of mutation (higher = less stable) (CD): 3.13 kcal/mol
denaturant m value (CD): 1.89 kcal/mol/M
denaturant midpoint (higher = more stable) (CD): 2.94 M

MMKMEGIALKKRLSWISVCLLVLVSAAGMLFSTAAKTETSSHKAHTEAQVINTFDGVADYLQTYHKLPDNYITKSEAQALGWVASKGNLADVAPGKSIGGDIFSNREGKLPGKSGMTWREADINYTSGFRNSDRILYSSDWLIYKTTDHYQTFTKIR [R116M]
ddG of mutation (higher = less stable) (Fluorescence): 2.12 kcal/mol
denaturant m value (Fluorescence): 2.14 kcal/mol/M
denaturant midpoint (higher = more stable) (Fluorescence): 3.47 M

MMKMEGIALKKRLSWISVCLLVLVSAAGMLFSTAAKTETSSHKAHTEAQVINTFDGVADYLQTYHKLPDNYITKSEAQALGWVASKGNLADVAPGKSIGGDIFSNREGKLPGKSGSTWREADINYTSGFRNSDRILYSSDWLIYKTTDHYQTFTKIR [R116S]
ddG of mutation (higher = less stable) (Fluorescence): 2.72 kcal/mol
denaturant m value (Fluorescence): 1.86 kcal/mol/M
denaturant midpoint (higher = more stable) (Fluorescence): 3.16 M

MMKMEGIALKKRLSWISVCLLVLVSAAGMLFSTAAKTETSSHKAHTEAQVINTFDGVADYLQTYHKLPDNYITKSEAQALGWVASKGNLADVAPGKSIGGDIFSNREGKLPGKSGRTWREANINYTSGFRNSDRILYSSDWLIYKTTDHYQTFTKIR [D122N]
ddG of mutation (higher = less stable) (Fluorescence): 4.8 kcal/mol
denaturant m value (Fluorescence): 1.69 kcal/mol/M
denaturant midpoint (higher = more stable) (Fluorescence): 2.08 M

MMKMEGIALKKRLSWISVCLLVLVSAAGMLFSTAAKTETSSHKAHTEAQVINTFDGVADYLQTYHKLPDNYITKSEAQALGWVASKGNLADVAPGKSIGGDIFSNREGKLPGKSGRTWREADINYTSGFKNSDRILYSSDWLIYKTTDHYQTFTKIR [R130K]
ddG of mutation (higher = less stable) (Fluorescence): 4.13 kcal/mol
denaturant m value (Fluorescence): 1.68 kcal/mol/M
denaturant midpoint (higher = more stable) (Fluorescence): 2.43 M

MMKMEGIALKKRLSWISVCLLVLVSAAGMLFSTAAKTETSSHKAHTEAQVINTFDGVADYLQTYHKLPDNYITKSEAQALGWVASKGNLADVAPGKSIGGDIFSNREGKLPGKSGRTWREADINYTSGFQNSDRILYSSDWLIYKTTDHYQTFTKIR [R130Q]
ddG of mutation (higher = less stable) (Fluorescence): 2.05 kcal/mol
denaturant m value (Fluorescence): 2.28 kcal/mol/M
denaturant midpoint (higher = more stable) (Fluorescence): 3.51 M

MMKMEGIALKKRLSWISVCLLVLVSAAGMLFSTAAKTETSSHKAHTEAQVINTFDGVADYLQTYHKLPDNYITKSEAQALGWVASKGNLADVAPGKSIGGDIFSNREGKLPGKSGRTWREADINYTSGFRNSDRILYSSNWLIYKTTDHYQTFTKIR [D140N]
ddG of mutation (higher = less stable) (Fluorescence): 4.11 kcal/mol
denaturant m value (Fluorescence): 1.99 kcal/mol/M
denaturant midpoint (higher = more stable) (Fluorescence): 2.44 M
